Data on 15 variants can be found in the RNAGym collection of RNA variant scans (doi:10.1093/molbev/msab373).

B1: Azoarcus group I ribozyme (parent)
chain: GUGCCUUGCGCCGGGAAACCACGCAAGGGAUGGUGUCAAAUUCGGCGAAACCUAAGCGCCCGCCCGGGCGUAUGGCAACGCCGAGCCAAGCUUCGGCGCCUGCGCCGAUGAAGGUGUAGAGACUAGACGGCACCCACCUAAGGCAAACGCUAUGGUGAAGGCAUAGUCCAGGGAGUGGCGAAAGUCACACAAACCGG

The variants in the data set derive from B1. Kind of data set: reverse-splicing fitness (ratio to wild type); higher = more active; in vitro selection; Mg2+ level not given. The method in brief:
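An in vitro group I ribozyme library with randomized positions was T7-transcribed and gel-purified. In triplicate, 10 pmol RNA in EPPS pH 7.5 was reacted with 50 pmoles of a 30-nt RNA substrate for 1 h at 37 °C across several added MgCl2 levels (1–48 mM), then stopped with EDTA. Products were reverse transcribed from a substrate-complementary primer, PCR-amplified and sequenced (HiSeq 4000). Fitness is a variant's read proportion after selection over that before, normalised to wild type.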
GUGCCUUGCGCCGGGAAACCACGCAAGGGAUGGUGUCAAAUUCGGCGAAACCUAAGCGCCCGCCCGGGCGUAUGGCAACGCUGAGCCAAGCUUCGGCGCCUGCGCCGAUGCAGGUGUAGGGACUAGACGGCACCCACCUAAGGCGAACGUUAUGGUGAAGGCAUAGUCAAGGGAGUGGCGAAAGUCACACAAACCGG [C82U A111C A120G A145G C150U C169A]: the reverse-splicing fitness amounted to 0.0103. With GUGCCUUGCGCCGGGAAACCACGCAAGGGAUGGUGUCAAAUUCGGCGAAACCUAAGCGCCCGCCCGGGCGUAUGGCAACGCGGAGCCAAGCUUCGGCGCCUGCGCCGAUGCAGGUGUAGUGACUAGACGGCACCCACCUAAGGCCAACGAUAUGGUGAAGGCAUAGUCUAGGGAGGGGCGAAAGUCACACAAACCGG [C82G A111C A120U A145C C150A C169U U176G], the reverse-splicing fitness is 0.00237. Take GUGCCUUGCGCCGGGAAACCACGCAAGGGAUGGUGUCAAAUUCGGCGAAACCUAAGCGCCCGCCCGGGCGUAUGGCAACGCCGAGCCAAGCUUCGGCGCCUGCGCCGAUGUAGGUGUAGCGACUAGACGGCACCCACCUAAGGCUAACGGUAUGGUGAAGGCAUAGUCCAGGGAGGGGCGAAAGUCACACAAACCGG [A111U A120C A145U C150G U176G]: the reverse-splicing fitness was 0.00473. Take GUGCCUUGCGCCGGGAAACCACGCAAGGGAUGGUGUCAAAUUCGGCGAAACCUAAGCGCCCGCCCGGGCGUAUGGCAACGCCGAGCCAAGCUUCGGCGCCUGCGCCGAUGCAGGUGUAGAGACUAGACGGCACCCACCUAAGGCCAACGCUAUGGUGAAGGCAUAGUCUAGGGAGAGGCGAAAGUCACACAAACCGG [A111C A145C C169U U176A]: the reverse-splicing fitness worked out at 0.0278. To GUGCCUUGCGCCGGGAAACCACGCAAGGGAUGGUGUCAAAUUCGGCGAAACCUAAGCGCCCGCCCGGGCGUAUGGCAACGCUGAGCCAAGCUUCGGCGCCUGCGCCGAUGCAGGUGUAGUGACUAGACGGCACCCACCUAAGGCGAACGUUAUGGUGAAGGCAUAGUCAAGGGAGAGGCGAAAGUCACACAAACCGG [C82U A111C A120U A145G C150U C169A U176A] belongs 0.00691; to GUGCCUUGCGCCGGGAAACCACGCAAGGGAUGGUGUCAAAUUCGGCGAAACCUAAGCGCCCGCCCGGGCGUAUGGCAACGCCGAGCCAAGCUUCGGCGCCUGCGCCGAUGUAGGUGUAGCGACUAGACGGCACCCACCUAAGGCAAACGUUAUGGUGAAGGCAUAGUCCAGGGAGUGGCGAAAGUCACACAAACCGG [A111U A120C C150U], 0.348.

Turning to GUGCCUUGCGCCGGGAAACCACGCAAGGGAUGGUGUCAAAUUCGGCGAAACCUAAGCGCCCGCCCGGGCGUAUGGCAACGCGGAGCCAAGCUUCGGCGCCUGCGCCGAUGCAGGUGUAGGGACUAGACGGCACCCACCUAAGGCUAACGAUAUGGUGAAGGCAUAGUCGAGGGAGAGGCGAAAGUCACACAAACCGG [C82G A111C A120G A145U C150A C169G U176A], the reverse-splicing fitness came to 0.0126. Under GUGCCUUGCGCCGGGAAACCACGCAAGGGAUGGUGUCAAAUUCGGCGAAACCUAAGCGCCCGCCCGGGCGUAUGGCAACGCGGAGCCAAGCUUCGGCGCCUGCGCCGAUGAAGGUGUAGAGACUAGACGGCACCCACCUAAGGCAAACGGUAUGGUGAAGGCAUAGUCGAGGGAGUGGCGAAAGUCACACAAACCGG [C82G C150G C169G] stands 0.00811; under GUGCCUUGCGCCGGGAAACCACGCAAGGGAUGGUGUCAAAUUCGGCGAAACCUAAGCGCCCGCCCGGGCGUAUGGCAACGCAGAGCCAAGCUUCGGCGCCUGCGCCGAUGUAGGUGUAGGGACUAGACGGCACCCACCUAAGGCGAACGAUAUGGUGAAGGCAUAGUCUAGGGAGGGGCGAAAGUCACACAAACCGG [C82A A111U A120G A145G C150A C169U U176G], 0.0069. To GUGCCUUGCGCCGGGAAACCACGCAAGGGAUGGUGUCAAAUUCGGCGAAACCUAAGCGCCCGCCCGGGCGUAUGGCAACGCAGAGCCAAGCUUCGGCGCCUGCGCCGAUGGAGGUGUAGAGACUAGACGGCACCCACCUAAGGCUAACGGUAUGGUGAAGGCAUAGUCUAGGGAGGGGCGAAAGUCACACAAACCGG [C82A A111G A145U C150G C169U U176G] belongs 0.00668. For the variant GUGCCUUGCGCCGGGAAACCACGCAAGGGAUGGUGUCAAAUUCGGCGAAACCUAAGCGCCCGCCCGGGCGUAUGGCAACGCGGAGCCAAGCUUCGGCGCCUGCGCCGAUGAAGGUGUAGAGACUAGACGGCACCCACCUAAGGCCAACGGUAUGGUGAAGGCAUAGUCGAGGGAGCGGCGAAAGUCACACAAACCGG [C82G A145C C150G C169G U176C], the reverse-splicing fitness was found to be 0.00656. Under GUGCCUUGCGCCGGGAAACCACGCAAGGGAUGGUGUCAAAUUCGGCGAAACCUAAGCGCCCGCCCGGGCGUAUGGCAACGCUGAGCCAAGCUUCGGCGCCUGCGCCGAUGGAGGUGUAGAGACUAGACGGCACCCACCUAAGGCGAACGUUAUGGUGAAGGCAUAGUCCAGGGAGUGGCGAAAGUCACACAAACCGG [C82U A111G A145G C150U] stands 0.334; under GUGCCUUGCGCCGGGAAACCACGCAAGGGAUGGUGUCAAAUUCGGCGAAACCUAAGCGCCCGCCCGGGCGUAUGGCAACGCAGAGCCAAGCUUCGGCGCCUGCGCCGAUGUAGGUGUAGAGACUAGACGGCACCCACCUAAGGCGAACGCUAUGGUGAAGGCAUAGUCCAGGGAGAGGCGAAAGUCACACAAACCGG [C82A A111U A145G U176A], 0.0978. To GUGCCUUGCGCCGGGAAACCACGCAAGGGAUGGUGUCAAAUUCGGCGAAACCUAAGCGCCCGCCCGGGCGUAUGGCAACGCCGAGCCAAGCUUCGGCGCCUGCGCCGAUGUAGGUGUAGAGACUAGACGGCACCCACCUAAGGCUAACGCUAUGGUGAAGGCAUAGUCUAGGGAGAGGCGAAAGUCACACAAACCGG [A111U A145U C169U U176A] belongs 0.0258; to GUGCCUUGCGCCGGGAAACCACGCAAGGGAUGGUGUCAAAUUCGGCGAAACCUAAGCGCCCGCCCGGGCGUAUGGCAACGCAGAGCCAAGCUUCGGCGCCUGCGCCGAUGUAGGUGUAGUGACUAGACGGCACCCACCUAAGGCAAACGUUAUGGUGAAGGCAUAGUCGAGGGAGGGGCGAAAGUCACACAAACCGG [C82A A111U A120U C150U C169G U176G], 0.00271.
